Test results from patent publication US20120028880A1, “VEGFR-1/NRP-1 TARGETING PEPTIDES” (priority 2007, published 2012).
Square brackets hold non-standard residues; d marks the D form. Ends that are not written are not given here.

Columns and labels:
NRP-1 = assay: competition of CPQPRPLC phage binding to immobilized NRP-1 by soluble peptide
VEGFR-1 = assay: competition of CPQPRPLC phage binding to immobilized VEGFR-1 by soluble peptide
VEGFR-1, sequence (P17948 27-758): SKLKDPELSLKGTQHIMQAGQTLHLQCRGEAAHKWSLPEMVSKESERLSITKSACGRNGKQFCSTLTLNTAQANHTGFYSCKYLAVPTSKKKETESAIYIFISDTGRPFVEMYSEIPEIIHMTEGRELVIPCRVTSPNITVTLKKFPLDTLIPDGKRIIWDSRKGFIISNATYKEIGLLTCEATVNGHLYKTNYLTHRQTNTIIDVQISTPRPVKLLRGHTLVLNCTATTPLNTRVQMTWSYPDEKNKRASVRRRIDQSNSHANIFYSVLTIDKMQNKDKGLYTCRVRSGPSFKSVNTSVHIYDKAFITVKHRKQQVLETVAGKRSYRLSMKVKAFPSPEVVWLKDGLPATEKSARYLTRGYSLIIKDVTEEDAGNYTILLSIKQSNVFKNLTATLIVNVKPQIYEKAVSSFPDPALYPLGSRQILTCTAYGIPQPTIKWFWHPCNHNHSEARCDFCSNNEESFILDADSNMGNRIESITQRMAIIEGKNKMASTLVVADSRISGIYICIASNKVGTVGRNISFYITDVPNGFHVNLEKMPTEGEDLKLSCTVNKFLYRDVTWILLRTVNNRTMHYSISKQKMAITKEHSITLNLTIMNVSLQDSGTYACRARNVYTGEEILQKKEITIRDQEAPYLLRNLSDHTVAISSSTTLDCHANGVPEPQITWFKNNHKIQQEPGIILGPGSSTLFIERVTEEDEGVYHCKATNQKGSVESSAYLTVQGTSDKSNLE

NRP-1, sequence (O14786 22-856): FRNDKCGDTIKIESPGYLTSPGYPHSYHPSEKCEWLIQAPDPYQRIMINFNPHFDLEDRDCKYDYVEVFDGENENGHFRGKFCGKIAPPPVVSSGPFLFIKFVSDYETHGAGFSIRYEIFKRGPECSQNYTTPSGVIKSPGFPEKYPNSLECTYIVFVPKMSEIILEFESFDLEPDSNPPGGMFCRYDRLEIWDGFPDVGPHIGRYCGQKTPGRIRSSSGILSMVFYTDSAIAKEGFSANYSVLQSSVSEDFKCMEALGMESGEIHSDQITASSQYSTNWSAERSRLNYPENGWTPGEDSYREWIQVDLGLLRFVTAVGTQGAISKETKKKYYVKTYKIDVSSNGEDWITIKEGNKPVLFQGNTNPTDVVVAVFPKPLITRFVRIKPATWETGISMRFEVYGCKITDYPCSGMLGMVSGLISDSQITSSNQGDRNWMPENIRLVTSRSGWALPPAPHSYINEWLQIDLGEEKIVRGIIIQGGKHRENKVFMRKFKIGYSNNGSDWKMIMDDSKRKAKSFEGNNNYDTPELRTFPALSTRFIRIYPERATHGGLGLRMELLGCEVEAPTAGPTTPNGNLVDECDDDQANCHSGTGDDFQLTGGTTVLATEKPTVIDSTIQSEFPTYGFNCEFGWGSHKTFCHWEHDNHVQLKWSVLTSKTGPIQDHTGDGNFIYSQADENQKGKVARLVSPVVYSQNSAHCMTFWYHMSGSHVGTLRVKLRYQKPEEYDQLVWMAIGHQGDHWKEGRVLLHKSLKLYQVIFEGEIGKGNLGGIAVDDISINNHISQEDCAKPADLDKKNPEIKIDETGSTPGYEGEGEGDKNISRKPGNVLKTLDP

Substance: [dL]-[dP]-[dR]
- IC50 (NRP-1): 1 to 10 pM
- IC50 (VEGFR-1): 1 to 10 pM
